± gives the uncertainty stated by the source.
Experiment: protein stability index of a GFP-peptide fusion (yeast GPS) (PSI 1-4); higher = more stable; sorted into four equal gates, so the index is relative within each strain
Conditions: doa10∆
In short: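 Plasmids isolated from each sorting gate were PCR-amplified and Illumina-sequenced, and barcodes assigned the reads to strains. The gates, four of equal size, were set by GFP/Cherry fluorescence ratio on mid-log cultures in leucine-free medium. These cultures were yeast carrying a pooled library of tiled 17-residue yeast protein peptides fused downstream of GFP on a plasmid that also expresses Cherry. The protein stability index is the sum of every gate's read frequency times its gate number.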

Sequence | protein stability index
TKKKRKPTEVNDSENNS [ITC1] | 3.26 ± 0.063
TKKLIQKTVFDELCKLV [SRP54] | 1.1 ± 0.11
TKKPLMVKNVKPSSPPD [SIR4] | 2.93 ± 0.061
TKPEVASDMSDEDIITI [CDC53] | 2.89 ± 0.14
TKQRLDAYYDLELRNSV [PRP8] | 2.64 ± 0.046
TKRSIAIVFEEIKNWIS [YMR129W/POM152] | 1.41 ± 0.043
TLERVHLSYCSNLTIYP [GRR1] | 2.92 ± 0.067
TLFVRDQDSAVVSSNIK [QCR2] | 2.67 ± 0.23
TLIDLVKHSPGAIKPFT [ECM29] | 2.16 ± 0.2
TLIIDQVRKDLGNVIVP [NUT1] | 3.07 ± 0.29
TLISENWWHSEFEIPVS [BRR2] | 1.84 ± 0.11
TLIVVPFNQGSKQDVEA [FAS2] | 2.87 ± 0.12
TLQDFHLIFSNARIYNT [SNF2] | 2.25 ± 0.081
TLQLGQEFQLKQINHQG [RPB4] | 3.22 ± 0.26
TLSEPVQGELKPTVILK [FAS1] | 2.23 ± 0.054
TLVKGPKEPRLKSQMDT [SKI6] | 3.09 ± 0.25
TMANILYYPQKPLGTTR [RPB2] | 1.77 ± 0.057
TMFTAEQSELLKAQITS [SNF2] | 2.19 ± 0.046
TMTMDVFNDAHVLNKVT [RPN1] | 2.26 ± 0.065
TMTYEEVAKRLVELMFI [FAS1] | 1.79 ± 0.067
TNAAFPFHDPEARLFNI [ECM29] | 3.04 ± 0.1
TNGNNAGGGSNKSSVRP [MED6] | 3.19 ± 0.14
TNIHEPQYINYSSIPSL [SSN2] | 2.89 ± 0.23
TNKGPLAQIWLASNMSN [MCD1] | 2.33 ± 0.096
TNKLLFKRVSQTFEAKL [NUT1] | 1.78 ± 0.048

Sequence | protein stability index
TNTHPNFLSKIRNINVQ [SNF2] | 1.44 ± 0.049
TPDPSELAAKEEPAKEE [FAS2] | 2.718 ± 0.024
TPDTKNFFHAKKKDPVN [SNF12] | 3.29 ± 0.097
TPEKDLFIGLFTRPLFV [YCS4] | 1.54 ± 0.084
TPMTRISELPPQIRQEI [YGL172W/NUP49] | 2.84 ± 0.074
TPPVVVVGVVGYVETPR [RPL3] | 1.81 ± 0.086
TPSDLSESGSKLNVDQF [POP1] | 3.46 ± 0.098
TPSFSFGAKSDENKAGA [YJL041W/NSP1] | 3.51 ± 0.28
TQAIADIVQYHLELYTS [PRE3] | 2.07 ± 0.064
TQDESEIKDAETSCDNY [SMC4] | 2.26 ± 0.083
TQEFSKNYTTETDNEMN [SIR3] | 3.31 ± 0.12
TQKDSARVSPRNNVANK [YAR002W/NUP60] | 3.22 ± 0.1
TQKRLAASVVGVGKRKV [RPL19A] | 1.33 ± 0.1
TQLDKLRPRKDSKDGTT [SMB1] | 2.26 ± 0.28
TQLKKRAVSGVELRIYV [POP7] | 2.66 ± 0.13
TQVRVEFLEDTSRTIVR [RPS28A] | 3.37 ± 0.24
TRDEETTKLAFLVEYEG [SIR4] | 3.02 ± 0.14
TRDETVSLIKKYKLISR [YML103C/NUP188] | 2.48 ± 0.1
TRFKAVVVVGDSNGHVG [RPS2] | 1.87 ± 0.05
TRIFQALPRKLRRRTAS [POP1] | 2.33 ± 0.07
TRKGYIPSSKYAYMMNS [YLR018C/POM34] | 3.08 ± 0.11
TRKSLNNAVRFSKQCLI [ECM29] | 2.15 ± 0.06
TRPISSQVLDLAKKIAP [SMC2] | 2.72 ± 0.15
TRTIKQNNFHVLIDLLN [RGR1] | 1.75 ± 0.079
TSADLKSKAEELTQVPS [UBP6] | 3.16 ± 0.21

Sequence | protein stability index
TSDNLLTITKAAGANVD [RPP1B] | 1.97 ± 0.066
TSDSESTLYKYLKESKR [SWI3] | 3.11 ± 0.084
TSFDRTKKTITPMGGFV [RPL3] | 3.04 ± 0.12
TSGTSSEQFNVWDWNNW [GAL11] | 2.56 ± 0.086
TSILELGQLYVTMGAKD [RPN6] | 3.23 ± 0.11
TSNDASNKKETKKKRKP [ITC1] | 3.08 ± 0.089
TSNGLKKNPNWLEEYHP [FAS1] | 3.3 ± 0.17
TSNNETNNGNDDNETEN [GRR1] | 3.03 ± 0.074
TSQKMKKMVYVLDSMTK [SRP54] | 2.79 ± 0.11
TSRVTGILLLDSLIQLA [YJL039C/NUP192] | 1.85 ± 0.062
TSSIFQESFNSVQNLDQ [NUT1] | 3.16 ± 0.086
TSSRGRDHKSYSQSPPR [SMC4] | 2.65 ± 0.046
TSTDGKKRSKARKETYS [HTB1] | 3.07 ± 0.24
TSTGTTIVGVKFNNGVV [PUP1] | 2.55 ± 0.12
TSVDGKKRSKVRKETYS [HTB2] | 3.04 ± 0.087
TSVIQDLSEKILNDIET [BRR2] | 2.89 ± 0.1
TTDKNTTDDKSMDTKKK [BRN1] | 3.51 ± 0.1
TTDMISVLYQLSTSAFM [YML031W/NDC1] | 1.42 ± 0.095
TTNNNNTNNNNTNNNNN [SWI1] | 3.39 ± 0.087
TTPKKIKHKHKKVKLAV [RPS31] | 2.19 ± 0.052
TTPVKLGPGIYCDPNTQ [RRP40] | 2.65 ± 0.077
TTQGGLTSVTRHGFNRS [RPO21] | 3.14 ± 0.088
TTTTANINEVKKASDLV [NUT1] | 3.01 ± 0.06
TTYTYQQPNPLQDLISV [ROX3] | 1.67 ± 0.059
TVASSKVGYTLPSHIIS [RPL4A] | 3.19 ± 0.076

Sequence | protein stability index
TVEALDFREKALYIAMM [RET1] | 2.73 ± 0.1
TVKLYLPEILNVLCVNI [ECM29] | 1.46 ± 0.047
TVKTNDELMVIYISNLV [RPN8] | 1.66 ± 0.12
TVLCTPTGGKAKLSEGT [RPS27B] | 3.25 ± 0.11
TVNGQARDLATMTYEEV [FAS1] | 2.96 ± 0.08
TVPEYLKTADNRDRSFQ [PGD1] | 3.08 ± 0.084
TVPNINFSGLNGGITNT [YOR098C/NUP1] | 3.45 ± 0.15
TVQENELLKSSLQKAGS [AAR2] | 3.17 ± 0.11
TVRVDKASTYGELVLDI [SNF12] | 2.38 ± 0.06
TVTSLDVVYALKRQGRT [HHF1] | 3.55 ± 0.18
TVVTVVSTAKFSGKYLK [RPL22A] | 3.18 ± 0.12
TWIQQFKSTMLQVSEKD [ARP7] | 1.89 ± 0.065
TWSLILNECLKTIQINN [YML031W/NDC1] | 1.88 ± 0.057
TWTNSKIFIKDPKFVNS [YML103C/NUP188] | 2.27 ± 0.11
TYASVTGLFTLERTDLK [RPN7] | 3.43 ± 0.23
TYDKETITDLIEQGIPK [SIR4] | 3.3 ± 0.049
TYLTQEILILINDPTNK [SIN4] | 1.31 ± 0.06
TYQTERFTKFSDTLKEF [YDL116W/NUP84] | 2.38 ± 0.047
VAADGKLVTYIVKFKQK [YLR335W/NUP2] | 2.17 ± 0.059
VAAKWNTSLISLFTYFR [PRP8] | 1.7 ± 0.064
VAARMFHILLKLILEWV [ECM29] | 1.42 ± 0.17
VAATNTPIIFIGTGEHI [SRP54] | 2.17 ± 0.1
VAEGKSKQDASPKPYAV [RPL8A] | 3.04 ± 0.12
VAEIVQNVISLGSLTVE [RPC82] | 1.97 ± 0.068
